Experimental data as given in patent publication US8440629B2, “Cyclic receptor-associated protein (RAP) peptides” (Raptor Pharmaceuticals Inc., priority 2007, dated 2013).

Key:
Experiment in all cases: Solid phase binding assay
MAT CR23 = biological target: T1, MAT CR23 (Homo sapiens, UniProt Q9Y5Y6); details: highest ligand concentrations tested
T1 construct: made in house; host or cells: E. coli BL21(DE3) CodonPlus-RIPL, pET30(+)a
T1 sequence (Q9Y5Y6 487-566): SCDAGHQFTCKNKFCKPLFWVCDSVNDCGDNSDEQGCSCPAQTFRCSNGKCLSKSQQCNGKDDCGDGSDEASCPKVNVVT

MAT CR34 = biological target: T2, MAT CR34 (Homo sapiens, UniProt Q9Y5Y6); details: separate set of experiments
T2 construct: MAT CR34 (ST14 CR34), amino acids 525-602; made in house; host or cells: E. coli BL21(DE3) CodonPlus-RIPL, pET30(+)a
T2 sequence (Q9Y5Y6 525-602): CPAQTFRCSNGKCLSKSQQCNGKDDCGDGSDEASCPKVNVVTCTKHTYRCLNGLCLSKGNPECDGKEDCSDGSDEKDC

MAT CR12 = biological target: T3, MAT CR12 (Homo sapiens, UniProt Q9Y5Y6); details: separate set of experiments
T3 construct: termed MAT CR12 (ST14 CR12), amino acids 452-524; made in house; host or cells: E. coli BL21(DE3) CodonPlus-RIPL, pET30(+)a
T3 sequence (Q9Y5Y6 452-524): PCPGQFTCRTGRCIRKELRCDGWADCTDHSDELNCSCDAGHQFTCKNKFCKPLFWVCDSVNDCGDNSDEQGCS

VLDLR CR78 = biological target: T4, VLDLR CR78 (Homo sapiens, UniProt P98155); details: highest ligand concentrations tested
T4 construct: a CR pair from VLDLR (CR78); made in house; host or cells: E. coli BL21(DE3) CodonPlus-RIPL, pET30(+)a

LRP6 CR12 = biological target: T5, LRP6 CR12 (Homo sapiens, UniProt O75581); details: highest ligand concentrations tested
T5 construct: LRP6 CR12 and LRP6 CR23, amino acids 1247-1322 and 1323-1363; made in house; host or cells: E. coli BL21(DE3) CodonPlus-RIPL, pET30(+)a
T5 sequence (O75581 1247-1322): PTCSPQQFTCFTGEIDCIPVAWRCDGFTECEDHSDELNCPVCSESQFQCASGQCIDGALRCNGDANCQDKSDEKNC

LRP6 CR1-3 = biological target: T6, LRP6 CR1-3 (Homo sapiens, UniProt O75581); details: highest ligand concentrations tested
T6 construct: made in house; host or cells: E. coli BL21(DE3) CodonPlus-RIPL, pET30(+)a
T6 sequence (O75581 1247-1363): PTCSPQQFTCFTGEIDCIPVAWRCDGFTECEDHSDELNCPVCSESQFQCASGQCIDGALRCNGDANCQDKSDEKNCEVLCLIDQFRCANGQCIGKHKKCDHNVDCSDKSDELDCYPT

LRP6 CR23 = biological target: T7, LRP6 CR23 (Homo sapiens, UniProt O75581); details: highest ligand concentrations tested
T7 construct: the two CR pairs from LRP6 within the triplet (CR1 and 2, termed CR12, CR2 and 3, termed CR23); made in house; host or cells: E. coli BL21(DE3) CodonPlus-RIPL, pET30(+)a
T7 sequence (O75581 1286-1363 limits assumed): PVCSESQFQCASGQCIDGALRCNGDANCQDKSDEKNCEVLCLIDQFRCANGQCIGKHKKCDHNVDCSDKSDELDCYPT

binding relative to that for LRP1 CR3-5 (MAT CR23): less than 5%
binding (in words) (MAT CR34): undetectable
binding (in words) (MAT CR12): undetectable
binding relative to that for LRP1 CR3-5 (VLDLR CR78): less than 5%
binding relative to that for LRP1 CR3-5 (LRP6 CR12): less than 5%
binding relative to that for LRP1 CR3-5 (LRP6 CR1-3): less than 5%
binding relative to that for LRP1 CR3-5 (LRP6 CR23): less than 5%
B1: RAP d3: third domain of human RAP, amino acids 201-319 of mature RAP, bacterially expressed with hexahistidine and S-peptide tags (SEQ ID NO: 92) (protein, listed as Homo sapiens)
chain: LDRLRRVSHQGYSTEAEFEEPRVIDLWDLEQSANLTDKELEAFREELKHFEAKIEKHNHYQKQLEIAHEKLRHAESVGDGERVSRSREKHALLEGRTKELGYTVKKHLQDLSGRISRAR
modifications: hexahistidine and S-peptide tags
